In this assay the target is synthetic peptide …[pT]ISDSAPSR (human). Briefly: bead array incubated with the synthetic peptide in digested BSA; bound peptide by MS, peptide left in the sample by dot blot.

The values below come from US20210018513A1.

synthetic peptide …[pT]ISDSAPSR (human), sequence (peptide, as listed by the source): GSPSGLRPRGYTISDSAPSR

For “Rabbit monoclonal antibody recognizing phosphorylated Thr1462 in human Tuberin (TSC2), Cell Signaling Technology catalog number 3617 (5B12)”, the binding capacity of a bead array of 5 identical reactive sites, each with 5% of the #3617 antibody was < 15 % of 1 pmol.
